Laboratory results taken from patent EP3244212A1.

Assays:
[1] = biological target: serum sIgE of the patients of the ELISA inhibition study (Example 3) (human); test: ELISA inhibition: serum pre-incubated with soluble Ara h 2 (0.1, 1, 10 ug/ml); immobilised competitor Ara h 7.0201
[2] = biological target: serum sIgE of the patients of the ELISA inhibition study (Example 3) (human); test: ELISA inhibition: serum pre-incubated with soluble Ara h 2 (0.1, 1, 10 ug/ml); immobilised competitor Ara h 6

B1: Ara h 2 isotype 2.0201, recombinant His6 fusion protein (protein)
chain: MSHHHHHHIEGRTMRQQWELQGDRRCQSQLERANLRPCEQHLMQKIQRDEDSYGRDPYSPSQDPYSPSQDPDRRDPYSPSPYDRRGAGSSQHQERCCNELNEFENNQRCMCEALQQIMENQSDRLQGRQQEQQFKRELRNLPQQCGLRAPQRCDLEVESGGRDRY
% inhibition (median over sera) [1]: 16% | % inhibition (median over sera) [2]: 43%
